Data published in patent WO2021244601A1 (dated 2021).

What was measured:
[1] = target: Spike S1+S2 protein of Wuhan-Hu-1 (Yiqiao Shenzhou / SB, 40589-V08B1) (SARS-CoV-2 Wuhan-Hu-1 strain, UniProt P0DTC2 16-1213)
[2] = target: S protein of Wuhan-Hu-1 on pseudovirus (SARS-CoV-2 Wuhan-Hu-1 strain, UniProt P0DTC2 14-1273); test: cell-based or functional assay
[3] = target: S protein of SARS-CoV-2 true virus, strain BetaCoV/Beijing/IMEBJ01/2020 (SARS-CoV-2 BetaCoV/Beijing/IMEBJ01/2020); test: cell-based or functional assay
[4] = target: T1, human CD64 (ACROBiosystems, catalog number FCA-H52H2) (human, UniProt P12314 16-288); test: BLI, OctetRED 96, antibody on FAB2G sensor
T1 construct: also called CD64 protein; human CD64 receptor
T1 sequence (P12314 16-288 limits assumed): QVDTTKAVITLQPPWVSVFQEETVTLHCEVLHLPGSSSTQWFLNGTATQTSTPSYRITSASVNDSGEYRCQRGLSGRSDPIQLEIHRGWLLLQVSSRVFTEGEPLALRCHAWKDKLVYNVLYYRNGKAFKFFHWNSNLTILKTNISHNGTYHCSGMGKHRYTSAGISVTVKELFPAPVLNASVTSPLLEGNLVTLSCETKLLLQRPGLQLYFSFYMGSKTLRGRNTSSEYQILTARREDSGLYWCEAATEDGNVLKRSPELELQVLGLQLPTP

[5] = target: T1, human CD64 (ACROBiosystems, catalog …)

B1: CA304 (antibody, V domains shown)
VH: EVQLQQWGAGLLKPSETLSLTCAVYGGSFSGYYWSWIRQPPGKGLEWIGEVNHSGSTNYNPSLKSRVTISVDTSKNQLSLKLNSVTAADTAVYYCARGNTMVRGVIIPFEYWDKGTLVTVSS
VL: DIVMTQTPLSLPVTLGQPASISCRSSQSLVHSDGNTYLNWFQQRPGQSPRRLIYKVSNRDSGVPDRFSGSGAGTDFTLKISRVEAEDVGVYYCTQATQFPFTFGPGTKVDIKR
IC50 [1]: 0.176 nM | IC50(nM), pseudovirus neutralisation on 293T-ACE2 cells (Luciferase RLU) [2]: 0.2 nM | IC50, pseudovirus neutralisation (method as 3.15) [2]: 0.821 nM | IC50, neutralisation of true virus on Vero cells (plaques) [3]: 0.08 µg/mL

B2: CA555 (antibody, V domains shown)
VH: EVQLQQWGAGLLKPSETLSLTCAVYGGSFSGYYWSWIRQPPGKGLEWIGEVNHSGSTNYNPSLKSRVTISVDTSKNQLSLKLNSVTAADTAVYYCARGNTMVRGVIIPFEYWDKGTLVTVSS
VL: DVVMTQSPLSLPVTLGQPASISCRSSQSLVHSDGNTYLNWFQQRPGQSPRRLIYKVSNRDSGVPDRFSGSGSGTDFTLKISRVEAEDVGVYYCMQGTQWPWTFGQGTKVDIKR
IC50 [1]: 0.187 nM | IC50(nM), pseudovirus neutralisation on 293T-ACE2 cells (Luciferase RLU) [2]: 0.98 nM | IC50, pseudovirus neutralisation (method as 3.15) [2]: 0.328 nM

B3: CA530 (antibody)
heavy: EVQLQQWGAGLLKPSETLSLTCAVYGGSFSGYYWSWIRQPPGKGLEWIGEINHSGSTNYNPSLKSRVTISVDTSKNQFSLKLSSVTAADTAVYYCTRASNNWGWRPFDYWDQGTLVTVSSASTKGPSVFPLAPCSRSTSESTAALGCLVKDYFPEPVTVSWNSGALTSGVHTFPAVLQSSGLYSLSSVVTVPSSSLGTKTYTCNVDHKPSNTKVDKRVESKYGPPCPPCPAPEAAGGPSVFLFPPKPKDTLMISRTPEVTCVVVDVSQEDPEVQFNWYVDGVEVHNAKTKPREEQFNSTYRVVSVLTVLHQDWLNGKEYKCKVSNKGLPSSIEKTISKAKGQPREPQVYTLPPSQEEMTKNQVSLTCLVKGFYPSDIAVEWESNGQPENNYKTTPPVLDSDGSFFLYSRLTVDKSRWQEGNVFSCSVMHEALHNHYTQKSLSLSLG
light: DIVMTQTPLSLPVTLGQPASISCRSSQSLVHSDGNTYLNWFQQRPGQSPRRLIYKVSNRDSGVPDRFSGSGSGTDFTLKISRVEAEDVGVYYCMQGTHWPRTFGQGTKVEIKRTVAAPSVFIFPPSDEQLKSGTASVVCLLNNFYPREAKVQWKVDNALQSGNSQESVTEQDSKDSTYSLSSTLTLSKADYEKHKVYACEVTHQGLSSPVTKSFNRGEC
notes: copies: 2 + 2
IC50(nM), pseudovirus neutralisation on 293T-ACE2 cells (Luciferase RLU) [2]: 0.11 nM | binding result [4]: no binding

B4: IgG4 wild-type control antibody (antibody)
heavy: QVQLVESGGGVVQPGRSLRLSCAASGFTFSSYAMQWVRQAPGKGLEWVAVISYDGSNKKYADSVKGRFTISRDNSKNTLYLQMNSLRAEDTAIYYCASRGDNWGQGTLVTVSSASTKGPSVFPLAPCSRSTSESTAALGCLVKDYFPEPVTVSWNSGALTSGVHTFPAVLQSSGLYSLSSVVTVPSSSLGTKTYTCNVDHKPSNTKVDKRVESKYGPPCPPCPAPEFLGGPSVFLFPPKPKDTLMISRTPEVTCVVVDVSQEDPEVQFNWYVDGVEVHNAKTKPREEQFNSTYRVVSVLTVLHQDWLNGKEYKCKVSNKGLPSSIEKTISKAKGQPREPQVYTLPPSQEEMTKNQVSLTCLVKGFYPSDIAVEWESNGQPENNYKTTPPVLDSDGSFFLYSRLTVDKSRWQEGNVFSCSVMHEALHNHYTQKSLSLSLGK
light: DIVMTQSPSSLSASVGDRVTITCRASQGIRNDLGWYQQKPGKAPKLLIYAASSLQSGVPSRFSGSGSGTDFTLTISSLQPEDFATYYCLQDYNYPRTFGQGTKVEIKRTVAAPSVFIFPPSDEQLKSGTASVVCLLNNFYPREAKVQWKVDNALQSGNSQESVTEQDSKDSTYSLSSTLTLSKADYEKHKVYACEVTHQGLSSPVTKSFNRGEC
Kd [5]: 3.41 nM
